# Assay results published in the DeepSol protein solubility set.
# Assay: soluble on expression in E. coli; label from the status in PepcDB or PDB records
row,Sequence,soluble on expression in E. coli
1,MCGKFTLFSEFDDIIEQFNIDQFLPEGEYHPSYNVAPSQNILTIINDGSNNRLGKLRWGLIPPCAKDEKIGYKMINARAETLAEKPSFRKPLGSKRCIIPADSFYEWKRLDPKTKIPMRIKLKSSNLFAFAGLYEKWNTLEGNLLYTCTIITIKPSELMEDIHDRMPVILTDENKKEWLNPKNTDPDYLQSLLLPYDADDMEAYQVSSLVNSPELIESHLEHHHHHH,not soluble
2,MCIGMDIRDFFAQSAGRWFSQRTSHHLAFKQTESGKSQLTIELLSVDDPAVIALCQQYDMDPAWAVCGARVSWDGTMEWDNEKHEGSTVLVPIMDQGSRMEGKLLREMGYAEKAPVAGRFSMGSDGALTLITEYETIYSEERLWFASPNLRLRTSILKRFGGFSMASFCSEIRLGVTQPANSLEHHHHHH,soluble
3,MCIGVPGQVLAVGEDIHQLAQVEVCGIKRDVNIALICEGNPADLLGQWVLVHVGFAMSIIDEDEAKATLDALRQMDYDITSA,not soluble
4,MCTGIKIISKTNDIFYGRTMDFTFDFFGNEDPIAPKIPTLIAQFPKGTVLNSQLNPWTAKYAFMGLAMSGTDQPANDGKTVSLAITDGINEAGLSGDIQYLMESSTAPAESLADRGLTPHIAEEVLAYILSNFESVDEVKVAFEKIGLLDQKFQLDSLGEVHFTLHWTINDKNNNSIVLQPTDNGAFVIYDSIGVVTNSPEYNYHLTNARNYIGMRNYAIKEPYTLKSGATLDPIEGGTSYGLLGIPGDFTSPSRFIRALYYSDNLQEFDSSEGIMQLYRAFQTVMIPRGIGHLGQSNSLSDFTHYWSGYDVTNLTMYVQPESTTSFTKYTLDPALTEVTTFAVSNELLLTDLNQ,not soluble
5,MCTSKPKFIPLPEQQSLCSLPNSGCCHVDVKVGRSKWEKRVAVLVQVEGEPDYKIYIYTKPLIGQIYPLNELKKREVKCEKDKVFLVNLASEKGEKITFKATGNNGSIWVAALMSGTFTSPIHETHGHTGGTGTDGTTSNIESDLKEKPDTNVYTGSREGYVPPPAKEGSGSGGKKKDMNNVAVKPDEKKKDSGRKLKKTVSKTITKLSVSESKKKTEKKIAATQKTQEFPIPKTVDEAHTNSEPDGDPLKLKKTITDGNELSLKGATAPTPQKAKLTTPTSTTPASSLTPSNALTPGNEDKKKMTTDSEEIELHEKKK,soluble
6,MDAFRLAPCGPLRGRLRVPGDKSVTHRGLMLLALAEGEGRLFYPLKAGDTLSTARVLQALGAEVREEGPHFLVRGRGLRFQEPEDVLDCGNAGTLMRLLLGLLAGQEGLFAVLTGDASLRRRPMGRVVAPLRAMGARVDGREEGERAPLAVRGAPLRGLRYTLPVPSAQVKSALLLAGLFAEGVTKVEEPTPTRDHTERLFRHFGLPLEVEGRKVRTWRTGPFPAKDLVVPGDFSSAAFFLVAALVTPGSEVVVEGVGLNPTRTGLLTVLKAMGADLEWQVLEGEAGEPVGWVRARHSLLKGVAVDPGLIPLMVDEVPVLAAAAAWAEGETYIPGLSELRVKESDRVRAIAENLRALGVEVEEGPDWLRIRGGGVRPGRVRPFHDHRIAMAFAVAGLPVGVEVEEPHWAEISYPGFFQDLLRLCAAS,soluble
7,MDAHLVQAKKTSTASELSDSSLTFPFIGDYLSSPSLTTSDYVSDCSNLTVEGPVPANQEFSSSDESSVYISSALRLADYAFTPDDNIRIKPDAVIVICTQCQHQIQDKFFLSIDGRNYHENCLQCSTCENPLSNKCFYKDKTFYCKGCYFRTHVTSTASSCRELGPKCASCDRTIQATDWVRRARNYVYHLACFSCNQCKRQLSTGEEYALQEGNLLCKQHFLELVEGDSGVSSQKAKTKRVRTTFAEDQLSVLQTYFNRDSNPDGADLEKIASMTGLSKRVTQVWFQNSRARQKKWHQKSEGDNGDSQRSSVGPSSPSQKSDSSSEMMYPTSVTTSVEDAIPDSIVILGSLQFD,not soluble
8,MDALEIFKTLFSLVMRFSSYLPSNEEISDMKTTELYAFLYVALFGPKKMKEIAEFLSTTKSNVTNVVDSLEKRGLVVREMDPVDRRTYRVVLTEKGKEIFGEILSNFESLLKSVLEKFSEEDFKVVSEGFNRMVEALSREGR,not soluble
9,MDALELLINRRSASRLAEPAPTGEQLQNILRAGMRAPDHKSMQPWHFFVIEGEGRERFSAVLEQGAIAAGSDDKAIDKARNAPFRAPLIITVVAKCEENHKVPRWEQEMSAGCAVMAMQMAAVAQGFGGIWRSGALTESPVVREAFGCREQDKIVGFLYLGTPQLKASTSINVPDPTPFVTYFHH,soluble
10,MDAYRYWSREAIRADIDTRRHCLHIAIENFENDANIGTVVRTANAFAVDTVHIVGRKRWNRRGAMVTDRYQHLMHHPTTADVVAWAKQQGLTIVAIDNTPGCVPLETAELPERCLLLFGQEGPGVTQEAQDNARMTCSIAQFGSTRSINAGVAAGIAMHAWIRQHADLDNAW,not soluble
